Experimental data reported in article PMC4146490 (Nature communications, 2014).

B1: hnRNP A0, full length, recombinant (natural protein, UniProt Q13151 1-305, looked up)
chain: MENSQLCKLFIGGLNVQTSESGLRGHFEAFGTLTDCVVVVNPQTKRSRCFGFVTYSNVEEADAAMAASPHAVDGNTVELKRAVSREDSARPGAHAKVKKLFVGGLKGDVAEGDLIEHFSQFGTVEKAEIIADKQSGKKRGFGFVYFQNHDAADKAAVVKFHPIQGHRVEVKKAVPKEDIYSGGGGGGSRSSRGGRGGRGRGGGRDQNGLSKGGGGGYNSYGGYGGGGGGGYNAYGGGGGGSSYGGSDYGNGFGGFGSYSQHQSSYGPMKSGGGGGGGGSSWGGRSNSGPYRGGYGGGGGYGGSSF
B2: hnRNP A2, full length, recombinant (natural protein, UniProt P22626-2 1-341, looked up)
chain: MEREKEQFRKLFIGGLSFETTEESLRNYYEQWGKLTDCVVMRDPASKRSRGFGFVTFSSMAEVDAAMAARPHSIDGRVVEPKRAVAREESGKPGAHVTVKKLFVGGIKEDTEEHHLRDYFEEYGKIDTIEIITDRQSGKKRGFGFVTFDDHDPVDKIVLQKYHTINGHNAEVRKALSRQEMQEVQSSRSGRGGNFGFGDSRGGGGNFGPGPGSNFRGGSDGYGSGRGFGDGYNGYGGGPGGGNFGGSPGYGGGRGGYGGGGPGYGNQGGGYGGGYDNYGGGNYGSGNYNDFGNYNQQPSNYGPMKSGNFGGSRNMGGPYGGGNYGPGGSGGSGGYGGRSRY
B3: DAZ associated protein 1 (DAZAP1), full length, recombinant (natural protein, human, UniProt Q96EP5 1-407, looked up)
chain: MNNSGADEIGKLFVGGLDWSTTQETLRSYFSQYGEVVDCVIMKDKTTNQSRGFGFVKFKDPNCVGTVLASRPHTLDGRNIDPKPCTPRGMQPERTRPKEGWQKGPRSDNSKSNKIFVGGIPHNCGETELREYFKKFGVVTEVVMIYDAEKQRPRGFGFITFEDEQSVDQAVNMHFHDIMGKKVEVKRAEPRDSKSQAPGQPGASQWGSRVVPNAANGWAGQPPPTWQQGYGPQGMWVPAGQAIGGYGPPPAGRGAPPPPPPFTSYIVSTPPGGFPPPQGFPQGYGAPPQFSFGYGPPPPPPDQFAPPGVPPPPATPGAAPLAFPPPPSQAAPDMSKPPTAQPDFPYGQYAGYGQDLSGFGQGFSDPSQQPPSYGGPSVPGSGGPPAGGSGFGRGQNHNVQGFHPYRR

What was measured:
[1] = biological target: B3; experiment: ITC
[2] = biological target: B1; experiment: ITC

Binder	binding result [1]	stoichiometry N [2]
B1	binds	
B2	binds	
B3		1
